Experiments:
ANG1-C4BP (human) = ANG1-C4BP (human) (UniProt Q15389); experiment: non-reducing SDS-PAGE
C4BP-ANG1 (human) [1] = target: C4BP-ANG1 (human) (UniProt P04003); experiment: negative-stain electron microscopy
C4BP-ANG1 (human) [2] = target: C4BP-ANG1 (human) (UniProt P04003); experiment: non-reducing SDS-PAGE

| stoichiometry N (ANG1-C4BP (human)) | stoichiometry N (C4BP-ANG1 (human) [1]) | stoichiometry N (C4BP-ANG1 (human) [2]) | Substance |
| --- | --- | --- | --- |
| 7 | – | – | ANG1-C4BP (from UniProt Q15389-1 281-498; P04003 541-597) (ligand) |
| – | 7 | 7 | C4BP-ANG1 (from UniProt P04003 541-597; Q15389-1 281-498) (ligand) |
